Measurements from patent publication US20220242962A1 (APTEVO RESEARCH AND DEVELOPMENT, published 2022).

Legend:
Full-length Human OX40 = biological target: T1, Full-length Human OX40 (human, UniProt P43489 29-277); experiment: cell-based or functional assay
T1 sequence: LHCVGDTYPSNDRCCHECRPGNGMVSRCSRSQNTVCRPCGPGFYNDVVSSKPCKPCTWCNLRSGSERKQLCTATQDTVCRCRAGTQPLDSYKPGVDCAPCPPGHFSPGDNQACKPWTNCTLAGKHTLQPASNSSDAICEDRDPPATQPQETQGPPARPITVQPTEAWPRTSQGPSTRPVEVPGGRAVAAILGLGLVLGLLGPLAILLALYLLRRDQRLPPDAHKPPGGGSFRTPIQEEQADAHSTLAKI

Full-length Human 4-1BB = Full-length Human 4-1BB (human, UniProt Q07011 24-255); experiment: cell-based or functional assay
Full-length Cyno 4-1BB = biological target: T2, Full-length Cyno 4-1BB (cynomolgus monkey, UniProt Q07011 24-255 (human entry)); experiment: flow cytometry on Jurkat cells transfected with cynomolgus 4-1BB, goat anti-human Fc secondary antibody, MFI (Mean)
T2 construct: on Jurkat or CHO cells; also called FOB006; cynomolgus 4-1BB
T2 chain: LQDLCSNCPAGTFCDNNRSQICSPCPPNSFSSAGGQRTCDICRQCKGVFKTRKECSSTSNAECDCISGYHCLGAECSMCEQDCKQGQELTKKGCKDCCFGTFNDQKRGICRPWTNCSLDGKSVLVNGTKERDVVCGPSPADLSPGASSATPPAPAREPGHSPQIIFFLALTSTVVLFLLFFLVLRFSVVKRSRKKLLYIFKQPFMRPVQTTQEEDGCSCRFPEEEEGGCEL
Procedure: (§1) Serial dilutions of ADAPTIR™ constructs were incubated with transfected target cells and subsequently labelled with a fluorescently-conjugated goat-a-human Fc secondary antibody. […] (See Example 25.)

Human OX40 ECD-AFH = biological target: T3, Human OX40 ECD-AFH (human); experiment: SPR (Biacore 8K), construct captured, monovalent ECD
T3 construct: ECD'; entry includes the C-terminal tags; also called OXF003; Human OX40 ECD-avi-flag-his
T3 chain: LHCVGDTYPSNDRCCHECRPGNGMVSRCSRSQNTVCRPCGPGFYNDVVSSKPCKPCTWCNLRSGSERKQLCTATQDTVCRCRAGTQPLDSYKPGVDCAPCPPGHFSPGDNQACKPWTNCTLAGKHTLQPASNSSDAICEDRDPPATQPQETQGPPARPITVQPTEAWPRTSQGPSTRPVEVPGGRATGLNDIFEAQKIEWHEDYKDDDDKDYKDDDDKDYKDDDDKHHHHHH
Procedure: (§2) Mouse anti-human IgG (GE, BR-1008-39) at 25 μg/ml in 10 mM sodium acetate pH 5.0 was immobilized at a density of ˜10,000 response units (RU) onto each flow cell of a CM5 research-grade sensor chip (GE) by standard amine coupling chemistry. Each binding protein at approximately 100 nM in HBS-EP+ with 0.2% BSA buffer was captured in a flow cell with the immobilized anti-human IgG at a flow rate of 10 μL/min for 20 seconds, leaving one flow cell surface unmodified as the reference. Using a single-cycle kinetics mode, five different concentrations of ECD were sequentially injected through each flow cell at 30 μL/min for 300 seconds followed by a 600 second dissociation period. Regeneration was achieved by injection of 3 M MgCl₂ at a flow rate of 30 μL/min for 30 seconds followed by HBS-EP+ with 0.2% BSA buffer stabilization for 1 min.
(§3) Sensorgrams obtained from kinetic SPR measurements were analyzed by the double subtraction method. The signal from the reference flow cell was subtracted from the analyte binding response obtained from flow cells with immobilized or captured ligands. Buffer reference responses were then averaged from multiple injections. The averaged buffer reference responses were then subtracted from analyte binding responses, and the final double-referenced data were analyzed with Biacore T200 Evaluation software (2.0, GE), globally fitting data to derive kinetic parameters. All sensorgrams were fitted using a simple one-to-one binding model.
(§4) Using the BIACORE 8K SPR system, the affinity of these constructs for human and cyno 4-1BB, and human and cyno OX40 ECD, were determined using the methods described above. Monovalent binding affinity was determined by capturing the ADAPTIR™ bispecific construct on the chip and injecting monovalent ECD of the target at multiple concentrations.

Human 4-1BB ECD-AFH = biological target: T4, Human 4-1BB ECD-AFH (human); experiment: as above
T4 construct: entry includes the tags; also called FOB003; HUMAN CD137 ECD-AVI-FLAG-HIS
Procedure: as §2, §3, §4

Cyno OX40-AFH = biological target: T5, Cyno OX40-AFH (cynomolgus monkey); experiment: as above
T5 construct: entry includes the tags; also called OXF005; cyno OX40 ECD
T5 chain: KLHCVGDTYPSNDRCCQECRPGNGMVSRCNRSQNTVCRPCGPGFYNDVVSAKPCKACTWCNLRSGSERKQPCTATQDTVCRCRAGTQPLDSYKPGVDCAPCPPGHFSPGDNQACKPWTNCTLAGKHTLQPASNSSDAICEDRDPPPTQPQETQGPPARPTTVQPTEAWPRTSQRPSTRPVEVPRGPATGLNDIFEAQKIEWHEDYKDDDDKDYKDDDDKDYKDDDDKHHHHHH
Procedure: as §2, §3, §4

Cyno 4-1BB ECD-AFH = biological target: T6, Cyno 4-1BB ECD-AFH (cynomolgus monkey); experiment: as above
T6 construct: entry includes the tags; also called FOB004; Cyno CD137 ECD-avi-flag-his
T6 chain: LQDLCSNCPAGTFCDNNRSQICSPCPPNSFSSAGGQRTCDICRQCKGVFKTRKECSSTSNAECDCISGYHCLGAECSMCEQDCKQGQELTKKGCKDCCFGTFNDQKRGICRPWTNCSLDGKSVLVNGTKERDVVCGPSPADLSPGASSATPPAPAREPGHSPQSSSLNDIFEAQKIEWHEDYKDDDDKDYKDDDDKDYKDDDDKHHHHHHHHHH
Procedure: as §2, §3, §4

Full-length Cyno OX40 = biological target: T7, Full-length Cyno OX40 (cynomolgus monkey, UniProt P43489 29-277 (human entry)); experiment: flow cytometry on CHOK1SV cells transfected with cynomolgus OX40, goat anti-human Fc secondary antibody, MFI (Mean)
T7 construct: on CHO-K1SV cells; also called OXF004; cynomolgus OX40
T7 chain: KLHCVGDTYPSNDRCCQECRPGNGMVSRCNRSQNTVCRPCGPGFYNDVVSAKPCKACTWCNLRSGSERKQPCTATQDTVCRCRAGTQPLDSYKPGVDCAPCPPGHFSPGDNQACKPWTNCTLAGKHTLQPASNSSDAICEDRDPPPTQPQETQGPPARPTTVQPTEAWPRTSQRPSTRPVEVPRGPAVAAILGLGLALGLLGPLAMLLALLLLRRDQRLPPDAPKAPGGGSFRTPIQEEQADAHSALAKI
Procedure: as §1

B1: FXX01110 (bispecific antibody)
chain: EVQLVQSGAEVKKPGASVKVSCKASGYTFTSYWMNWVRQAPGQGLEWMGNIYPSGGSTNYAQKFQGRVTMTVDTSTSTVYMELSSLRSEDTAVYYCASFSDGYYAYAMDYWGQGTLVTVSSGGGGSGGGGSGGGGSGGGGSEIVMTQSPATLSLSPGERATLSCRASQSVSSYLNWYQQKPGQAPRLLIYYASRRHTGIPARFSGSGSGTDFTLTISSLQPEDFAVYYCQQGYNLPYTFGQGTKVEIKEPKSSDKTHTCPPCPAPPAAAPSVFLFPPKPKDTLMISRTPEVTCVVVDVSHEDPEVKFNWYVDGVEVHNAKTKPREEQYNSTYRVVSVLTVLHQDWLNGKEYKCAVSNKALPAPIEKTISKAKGQPREPQVYTLPPSRDELTKNQVSLTCLVKGFYPSDIAVEWESNGQPENNYKTTPPVLDSDGSFFLYSKLTVDKSRWQQGNVFSCSVMHEALHNHYTQKSLSLSPGGGGSPSSYVLTQPPSVSVAPGQTARITCGGNNIGSKSVNWFQQKPGQAPVLVVYDDSGRPSGIPARFSGSTSGNTATLTISRVEAGDEADYYCQVWDSSSDHVVFGGGTKLTVLGGGGSGGGGSGGGGSGGGGSQVQLVESGGGVVQPGRSLRLSCAASGFTLSYYGMHWVRQAPGKGLEWVAAISHDGSDKYYADSVKGRFTISRDNSKNTLYLQMNSLRAEDTAVYYCSNDQFDPWGQGTLVTVSSR
notes: ADAPTIR anti-4-1BB x anti-OX40, pI variant of the anti-OX40 scFv
Full-length Human OX40
  OX40 Reporter Assay EC50: 0.017 nM
  OX40 Reporter Assay Max induction: 5.9e+06
Full-length Human 4-1BB
  4-1BB Reporter Assay EC50: 0.021 nM
  4-1BB Reporter Assay Max induction: 1.38e+06
Full-length Cyno 4-1BB
  EC50 (read off the curve): ~0.3 nM
Human OX40 ECD-AFH
  Kd: < 1 nM
  koff: 0.00036 s⁻¹
  kon: 910000 M⁻¹ s⁻¹
Human 4-1BB ECD-AFH
  Kd: 18 nM
  koff: 0.0048 s⁻¹
  kon: 260000 M⁻¹ s⁻¹
Cyno OX40-AFH
  Kd: < 1 nM
  koff: 0.00029 s⁻¹
  kon: 1.1e+06 M⁻¹ s⁻¹
Cyno 4-1BB ECD-AFH
  Kd: 70 nM
  koff: 0.0077 s⁻¹
  kon: 110000 M⁻¹ s⁻¹
Full-length Cyno OX40
  EC50 (read off the curve): 1 to 2 nM

B2: FXX01113 (bispecific antibody)
chain: EVQLVQSGAEVKKPGASVKVSCKASGYTFTSYWMNWVRQAPGQGLEWMGNIYPSGGSTNYAQKFQGRVTMTVDTSTSTVYMELSSLRSEDTAVYYCASFSDGYYAYAMDYWGQGTLVTVSSGGGGSGGGGSGGGGSGGGGSEIVMTQSPATLSLSPGERATLSCRASQSVSSYLNWYQQKPGQAPRLLIYYASRRHTGIPARFSGSGSGTDFTLTISSLQPEDFAVYYCQQGYNLPYTFGQGTKVEIKEPKSSDKTHTCPPCPAPPAAAPSVFLFPPKPKDTLMISRTPEVTCVVVDVSHEDPEVKFNWYVDGVEVHNAKTKPREEQYNSTYRVVSVLTVLHQDWLNGKEYKCAVSNKALPAPIEKTISKAKGQPREPQVYTLPPSRDELTKNQVSLTCLVKGFYPSDIAVEWESNGQPENNYKTTPPVLDSDGSFFLYSKLTVDKSRWQQGNVFSCSVMHEALHNHYTQKSLSLSPGGGGSPSSYVLTQPPSVSVAPGQTARITCGGNNIGSKSVNWFQQKPGQAPVLVVYDDSGRPSGIPARFSGSTSGNTATLTISRVEAGDEADYYCQVWDSSSDHVVFGGGTKLTVLGGGGSGGGGSGGGGSGGGGSQVQLVESGGGVVQPGRSLRLSCAASGFTLSYYGMHWVRQAPGKGLEWVAAISHDGSDKYYADSVKGRFTISRDNSKNRLYLQMNSLRAEDTAVYYCSNDQFDPWGQGTLVTVSSR
notes: ADAPTIR anti-4-1BB x anti-OX40, pI variant
Full-length Human OX40
  OX40 Reporter Assay EC50: 0.016 nM
  OX40 Reporter Assay Max induction: 6.1e+06
Full-length Human 4-1BB
  4-1BB Reporter Assay EC50: 0.019 nM
  4-1BB Reporter Assay Max induction: 1.37e+06
Full-length Cyno 4-1BB
  EC50 (read off the curve): ~0.3 nM
Human OX40 ECD-AFH
  Kd: < 1 nM
  koff: 0.00031 s⁻¹
  kon: 890000 M⁻¹ s⁻¹
Human 4-1BB ECD-AFH
  Kd: 15 nM
  koff: 0.0046 s⁻¹
  kon: 300000 M⁻¹ s⁻¹
Cyno OX40-AFH
  Kd: < 1 nM
  koff: 0.00028 s⁻¹
  kon: 980000 M⁻¹ s⁻¹
Cyno 4-1BB ECD-AFH
  Kd: 82 nM
  koff: 0.0078 s⁻¹
  kon: 95000 M⁻¹ s⁻¹
Full-length Cyno OX40
  EC50 (read off the curve): 1 to 2 nM

B3: FXX01112 (bispecific antibody)
chain: EVQLVQSGAEVKKPGASVKVSCKASGYTFTSYWMNWVRQAPGQGLEWMGNIYPSGGSTNYAQKFQGRVTMTVDTSTSTVYMELSSLRSEDTAVYYCASFSDGYYAYAMDYWGQGTLVTVSSGGGGSGGGGSGGGGSGGGGSEIVMTQSPATLSLSPGERATLSCRASQSVSSYLNWYQQKPGQAPRLLIYYASRRHTGIPARFSGSGSGTDFTLTISSLQPEDFAVYYCQQGYNLPYTFGQGTKVEIKEPKSSDKTHTCPPCPAPPAAAPSVFLFPPKPKDTLMISRTPEVTCVVVDVSHEDPEVKFNWYVDGVEVHNAKTKPREEQYNSTYRVVSVLTVLHQDWLNGKEYKCAVSNKALPAPIEKTISKAKGQPREPQVYTLPPSRDELTKNQVSLTCLVKGFYPSDIAVEWESNGQPENNYKTTPPVLDSDGSFFLYSKLTVDKSRWQQGNVFSCSVMHEALHNHYTQKSLSLSPGGGGSPSSYVLTQPPSVSVAPGQTARITCGGNNIGSKSVNWFQQKPGQAPVLVVYDDSGRPSGVPSRFSGSTSGNTATLTISRVEAGDEADYYCQVWDSSSDHVVFGGGTKLTVLGGGGSGGGGSGGGGSGGGGSQVQLVESGGGVVQPGRSLRLSCAASGFTLSYYGMHWVRQAPGKGLEWVAAISHDGSDKYYADSVKGRFTISRDNSKNTLYLQMNSLRAEDTAVYYCSNDQFDPWGQGTLVTVSSR
notes: as for B2
Full-length Human OX40
  OX40 Reporter Assay EC50: 0.019 nM
  OX40 Reporter Assay Max induction: 6.17e+06
Full-length Human 4-1BB
  4-1BB Reporter Assay EC50: 0.014 nM
  4-1BB Reporter Assay Max induction: 1.45e+06
Full-length Cyno 4-1BB
  EC50 (read off the curve): ~0.3 nM
Human OX40 ECD-AFH
  Kd: < 1 nM
  koff: 0.00057 s⁻¹
  kon: 790000 M⁻¹ s⁻¹
Human 4-1BB ECD-AFH
  Kd: 17 nM
  koff: 0.0045 s⁻¹
  kon: 260000 M⁻¹ s⁻¹
Cyno OX40-AFH
  Kd: < 1 nM
  koff: 0.00031 s⁻¹
  kon: 870000 M⁻¹ s⁻¹
Cyno 4-1BB ECD-AFH
  Kd: 77 nM
  koff: 0.008 s⁻¹
  kon: 100000 M⁻¹ s⁻¹
Full-length Cyno OX40
  EC50 (read off the curve): 1 to 2 nM
